B1: K30W (designed binder)
chain: MTLQELLREEALRRAEAEAFRYALELLAEWFPEQKEYLLDLAEEIESQIRSLSGVDVEDVRKFLDKEWAWVKELLAEHPAELAEVEAARAARLAELRAEVEAKVAA
B2: W70Y (designed binder)
chain: B1 chain with W30K, W70Y
B3: A80F (designed binder)
chain: B1 chain with W30K, A80F
B4: P32V (designed binder)
chain: B1 chain with W30K, P32V
B5: E58M (designed binder)
chain: B1 chain with W30K, E58M
B6: E10K (designed binder)
chain: B1 chain with E10K, W30K
B7: K62T (designed binder)
chain: B1 chain with W30K, K62T
B8: A91T (designed binder)
chain: B1 chain with W30K, A91T
B9: V85P (designed binder)
chain: B1 chain with W30K, V85P
B10: E33H (designed binder)
chain: B1 chain with W30K, E33H
B11: A28Y (designed binder)
chain: B1 chain with A28Y, W30K
B12: V55E (designed binder)
chain: B1 chain with W30K, V55E
B13: L26M (designed binder)
chain: B1 chain with L26M, W30K
B14: W70K (designed binder)
chain: B1 chain with W30K, W70K
B15: V104Q (designed binder)
chain: B1 chain with W30K, V104Q
B16: E36V (designed binder)
chain: B1 chain with W30K, E36V
B17: V104N (designed binder)
chain: B1 chain with W30K, V104N
B18: A83C (designed binder)
chain: B1 chain with W30K, A83C
B19: F63D (designed binder)
chain: B1 chain with W30K, F63D
B20: H78N (designed binder)
chain: B1 chain with W30K, H78N
B21: Q48K (designed binder)
chain: B1 chain with W30K, Q48K
B22: A42W (designed binder)
chain: B1 chain with W30K, A42W
B23: L26F (designed binder)
chain: B1 chain with L26F, W30K
B24: R61Q (designed binder)
chain: B1 chain with W30K, R61Q
B25: W70T (designed binder)
chain: B1 chain with W30K, W70T
B26: S47C (designed binder)
chain: B1 chain with W30K, S47C
B27: F31Q (designed binder)
chain: B1 chain with W30K, F31Q
B28: W70H (designed binder)
chain: B1 chain with W30K, W70H
B29: Q34T (designed binder)
chain: B1 chain with W30K, Q34T
B30: G54T (designed binder)
chain: B1 chain with W30K, G54T
B31: A105K (designed binder)
chain: B1 chain with W30K, A105K
B32: L41G (designed binder)
chain: B1 chain with W30K, L41G
B33: K72D (designed binder)
chain: B1 chain with W30K, K72D
B34: V55N (designed binder)
chain: B1 chain with W30K, V55N
B35: L26D (designed binder)
chain: B1 chain with L26D, W30K
B36: A94T (designed binder)
chain: B1 chain with W30K, A94T
B37: F31A (designed binder)
chain: B1 chain with W30K, F31A
B38: L64P (designed binder)
chain: B1 chain with W30K, L64P
B39: A15E (designed binder)
chain: B1 chain with A15E, W30K
B40: E67R (designed binder)
chain: B1 chain with W30K, E67R
B41: W70P (designed binder)
chain: B1 chain with W30K, W70P
B42: E9F (designed binder)
chain: B1 chain with E9F, W30K
B43: L96Q (designed binder)
chain: B1 chain with W30K, L96Q
B44: D40Q (designed binder)
chain: B1 chain with W30K, D40Q
B45: E101H (designed binder)
chain: B1 chain with W30K, E101H
B46: H78C (designed binder)
chain: B1 chain with W30K, H78C
B47: W70D (designed binder)
chain: B1 chain with W30K, W70D
B48: L12C (designed binder)
chain: B1 chain with L12C, W30K
B49: G54W (designed binder)
chain: B1 chain with W30K, G54W
B50: F20M (designed binder)
chain: B1 chain with F20M, W30K
B51: A11I (designed binder)
chain: B1 chain with A11I, W30K
B52: A106V (designed binder)
chain: B1 chain with W30K, A106V
B53: R14K (designed binder)
chain: B1 chain with R14K, W30K
B54: A88D (designed binder)
chain: B1 chain with W30K, A88D
B55: E73G (designed binder)
chain: B1 chain with W30K, E73G

Residue numbers refer to the chain shown, from its start. In names and notes the source's numbering stands.

This experiment has as its target T1, TNFR1 (Homo sapiens, UniProt P19438).
T1 chain: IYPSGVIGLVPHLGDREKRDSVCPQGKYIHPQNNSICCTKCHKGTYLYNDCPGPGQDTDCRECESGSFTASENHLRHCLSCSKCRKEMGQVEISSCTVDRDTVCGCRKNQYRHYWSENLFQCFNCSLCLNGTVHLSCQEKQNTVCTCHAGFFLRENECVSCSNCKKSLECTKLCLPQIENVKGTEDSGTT
Briefly: yeast display SC50.
With B1, the “apparent Kd (screen)” value turned out to be 0.653 nM.
With B2, the “apparent Kd (screen)” value came out at 1.86 nM.
To B3 belongs 0.539 nM; to B4, 0.593 nM; to B5, 0.49 nM.
In the case of B6, the “apparent Kd (screen)” value stood at 8.56 nM.
Under B7 stands 0.539 nM.
Under B8 stands 0.593 nM; under B9, 2.25 nM.
Under B10 stands 0.49 nM; under B11, 22.2 nM.
Consider B12, for which the “apparent Kd (screen)” value was 15.2 nM.
As for B13, the “apparent Kd (screen)” value is 0.593 nM.
As to B14, the “apparent Kd (screen)” value turned out to be 5.84 nM.
For the molecule B15, the “apparent Kd (screen)” value amounted to 0.49 nM.
To B16 belongs 1.05 nM; to B17, 0.593 nM.
Regarding B18, the “apparent Kd (screen)” value worked out at 0.869 nM.
For the molecule B19, the “apparent Kd (screen)” value worked out at 7.07 nM.
To B20 belongs 0.539 nM; to B21, 7.07 nM; to B22, 4.83 nM.
Under B23 stands 0.593 nM.
To B24 belongs 0.539 nM; to B25, 29.5 nM; to B26, 0.718 nM.
Regarding B27, the “apparent Kd (screen)” value stood at 0.653 nM.
To B28 belongs 12.5 nM; to B29, 0.539 nM.
Consider B30, for which the “apparent Kd (screen)” value came out at 0.446 nM.
To B31 belongs 0.869 nM; to B32, 12.5 nM; to B33, 1.05 nM.
To B34 belongs 0.956 nM.
For B35, the “apparent Kd (screen)” value worked out at 0.956 nM.
To B36 belongs 0.539 nM; to B37, 0.49 nM; to B38, 3.99 nM.
As for B39, the “apparent Kd (screen)” value was 0.718 nM.
To B40 belongs 8.56 nM; to B41, 11.4 nM; to B42, 0.49 nM.
Under B43 stands 0.539 nM; under B44, 0.446 nM.
As for B45, the “apparent Kd (screen)” value came to 0.718 nM.
Under B46 stands 0.593 nM; under B47, 12.5 nM.
To B48 belongs 0.79 nM.
To B49 belongs 2.73 nM.
Take B50: the “apparent Kd (screen)” value is 0.869 nM.
Under B51 stands 0.368 nM.
Under B52 stands 0.653 nM; under B53, 0.49 nM.
For the molecule B54, the “apparent Kd (screen)” value stood at 0.593 nM.
To B55 belongs 0.718 nM.
